The values that follow come from CN115873113A (SHANGHAI INST MATERIA MEDICA CAS, dated 2023).

First the molecules themselves.
T1: CaSR (细胞内钙流实验中的受体) (human, UniProt P41180 20-1078)
T1 sequence (looked up): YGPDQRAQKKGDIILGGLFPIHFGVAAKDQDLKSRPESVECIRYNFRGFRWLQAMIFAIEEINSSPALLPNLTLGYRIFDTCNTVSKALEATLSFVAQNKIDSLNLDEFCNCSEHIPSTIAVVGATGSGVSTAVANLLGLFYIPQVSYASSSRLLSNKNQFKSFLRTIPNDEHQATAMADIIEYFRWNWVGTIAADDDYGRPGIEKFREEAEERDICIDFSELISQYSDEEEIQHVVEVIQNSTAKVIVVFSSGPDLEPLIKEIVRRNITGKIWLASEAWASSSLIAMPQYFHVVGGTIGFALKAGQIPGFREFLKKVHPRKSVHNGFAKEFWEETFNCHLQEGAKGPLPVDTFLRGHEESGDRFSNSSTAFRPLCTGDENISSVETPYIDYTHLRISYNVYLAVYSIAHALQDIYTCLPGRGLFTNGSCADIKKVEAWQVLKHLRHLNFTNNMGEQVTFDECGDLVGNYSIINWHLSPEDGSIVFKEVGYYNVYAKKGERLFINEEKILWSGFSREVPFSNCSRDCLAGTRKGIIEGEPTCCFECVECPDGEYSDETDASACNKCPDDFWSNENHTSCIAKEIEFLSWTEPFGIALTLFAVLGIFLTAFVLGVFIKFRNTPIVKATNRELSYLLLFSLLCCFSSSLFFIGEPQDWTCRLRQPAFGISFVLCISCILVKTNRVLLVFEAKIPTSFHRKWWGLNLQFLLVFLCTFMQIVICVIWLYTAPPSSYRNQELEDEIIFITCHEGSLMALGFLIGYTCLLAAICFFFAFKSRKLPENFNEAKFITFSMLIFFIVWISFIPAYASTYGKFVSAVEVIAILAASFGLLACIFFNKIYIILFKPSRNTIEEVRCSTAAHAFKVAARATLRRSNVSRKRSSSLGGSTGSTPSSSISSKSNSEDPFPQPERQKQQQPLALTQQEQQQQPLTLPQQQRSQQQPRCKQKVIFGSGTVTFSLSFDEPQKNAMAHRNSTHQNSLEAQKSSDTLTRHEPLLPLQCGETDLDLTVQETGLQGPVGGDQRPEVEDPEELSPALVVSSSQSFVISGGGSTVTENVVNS

T2: Biotin-CaSR蛋白 (人体细胞外钙敏感受体, Human extracellular calcium-sensing receptor) (human, UniProt P41180 20-870, limits assumed, biotinylated (Biotin-CaSR); site not stated)
T2 construct: Purified, detergent-solubilised CaSR; It was biotinylated and captured on NeutrAvidin plates for ELISA or on streptavidin biosensors for Octet
T2 sequence (looked up): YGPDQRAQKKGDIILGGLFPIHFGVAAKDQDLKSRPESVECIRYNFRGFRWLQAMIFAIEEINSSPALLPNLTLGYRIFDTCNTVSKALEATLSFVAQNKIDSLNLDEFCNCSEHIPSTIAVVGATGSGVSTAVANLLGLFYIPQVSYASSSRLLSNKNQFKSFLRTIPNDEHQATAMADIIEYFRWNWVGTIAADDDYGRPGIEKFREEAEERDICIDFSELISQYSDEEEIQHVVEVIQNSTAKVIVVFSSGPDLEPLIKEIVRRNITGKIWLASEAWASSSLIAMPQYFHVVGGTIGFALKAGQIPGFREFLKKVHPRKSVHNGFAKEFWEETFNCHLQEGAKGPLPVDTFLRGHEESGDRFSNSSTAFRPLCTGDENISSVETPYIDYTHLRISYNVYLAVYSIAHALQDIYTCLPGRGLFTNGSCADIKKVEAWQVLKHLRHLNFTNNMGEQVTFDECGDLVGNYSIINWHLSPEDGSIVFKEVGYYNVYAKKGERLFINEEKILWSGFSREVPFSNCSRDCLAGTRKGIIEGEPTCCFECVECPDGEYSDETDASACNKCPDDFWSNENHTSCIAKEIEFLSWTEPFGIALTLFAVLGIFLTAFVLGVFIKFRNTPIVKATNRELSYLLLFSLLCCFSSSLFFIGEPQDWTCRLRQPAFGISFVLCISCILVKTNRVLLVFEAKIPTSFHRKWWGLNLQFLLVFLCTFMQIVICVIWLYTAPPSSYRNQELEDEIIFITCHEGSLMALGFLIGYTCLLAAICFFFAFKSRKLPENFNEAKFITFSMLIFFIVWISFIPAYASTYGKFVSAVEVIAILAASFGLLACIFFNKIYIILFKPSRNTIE

B1: 纳米抗体2D4 (VHH)
VHH: LQESGGGSVQIGGSLRLSCAASGYTYMRYSSFCMGWFRQAPGKEREGVAAIDSGRRTTHADSVKGRFTISRDNAKNTLYLQMNSLKPEDTAMYYCAARDVGYCGGYWARRDFAYWGQGTQVTVSS
notes: Camel VHH expressed in E. coli and purified on a nickel column; It was detected through an HA tag; also called 抗体株2D4
B2: 纳米抗体NB88 (VHH)
VHH: QVQLQESGGGSVQAGESLRLSCAASRYGYSRNWMGWFRQPPGKEREGVAVIYTGGSKTAYADAVKGRFIISLDNANNTVYLQMNSLKPEDTAMYYCAAGLVAYGRRWSPEAYKYWGQGTQVTVSS
notes: Camel VHH expressed in E. coli and purified on a nickel column; It was detected through an HA tag; also called 抗体株NB88
B3: 纳米抗体2D11 (VHH)
VHH: QVQLQESGGGSVQAGGSLRLSCAASGFPISTYDMGWFRQAPGKEREGVVGITDSFSIKYEDSVKGRFTISRDNAKNALYLQMNSLKPEDTGMYYCAAGDARWSLLLRAEQYNYWGQGTQVTVSS
notes: Camel VHH expressed in E. coli and purified on a nickel column; It was detected through an HA tag; also called 抗体株2D11
B4: 纳米抗体1C12 (VHH)
VHH: QVQLQESGGGSVQAGGSLRLSCTASRYTYNSPLYMAWFRQAPGKEREGVAHIDSDGSITYTDSVKGRFTISRDNAKTTLYLQMNNLNPEDTAMYYCAADPLHRWSHRLEAIGYRYWGQGTQVTVSS
notes: Camel VHH expressed in E. coli and purified on a nickel column; also called 抗体株1C12
B5: 纳米抗体NB32 (VHH)
VHH: QVQLQESGGGSVQAGGSLTLSCAASEYKHRYSTYSMGWFRQAPGKEREGVAAIYSDGGTRYADSVKGRFTISKDNAKSTLYLLMNSLKPEDTAMYYCAASQTFRGWYPYEYNYWGQGTQVTVSS
notes: Camel VHH expressed in E. coli and purified on a nickel column; It was detected through an HA tag; also called 抗体株NB32

The target in the first assay is T1, CaSR (细胞内钙流实验中的受体). In words: cell-based or functional assay.
As to B1, the “钙流 IC50 (细胞外钙离子浓度1.2mM)” value was found to be 65 nM.

With B2, the “钙流 IC50 (细胞外钙离子浓度1.2mM)” value is 101 nM.

With B3, the “钙流 IC50 (细胞外钙离子浓度1.2mM)” value is 41 nM.

In the case of B4, the “钙流 IC50 (细胞外钙离子浓度1.2mM)” value was found to be 107 nM.

Consider B5, for which the “钙流 IC50 (细胞外钙离子浓度1.2mM)” value worked out at 301 nM.

A further assay concerns the target T2, Biotin-CaSR蛋白 (人体细胞外钙敏感受体, Human …). Description: ELISA, Biotin-CaSR on NeutrAvidin plate, nanobody titrated 1e-11 to 1e-6 mol/l, anti-HA detection. On the technique in general: ELISA stands for enzyme-linked immunosorbent assay.
Take B1: the EC50 turned out to be 0.9.

As to B2, the EC50 came to 1.

For the molecule B3, the EC50 amounted to 1.9.

Take B4: the EC50 was 2.1.

For B5, the EC50 was determined as 3.

The target is the same in a further assay. In words: BLI (Octet-Red96), Biotin-CaSR on streptavidin biosensor, nanobody in solution.
In the case of B1, the Kd (usually the constant that tells how readily two partners part at equilibrium) came to 0.46 nM.

For B2, the Kd worked out at 3.9 nM.

For B3, the Kd was determined as 0.24 nM.

For the molecule B4, the Kd stood at 0.9 nM.

As to B5, the Kd stood at 3.2 nM.
